Test results reported in patent US20070292490A1.

Legend:
[1] = target: E. coli produced recombinant human tissue factor rhTF243, purified and lipidated (human) (UniProt P13726); assay: cell-based or functional assay
[2] = target: lettuce-produced recombinant human tissue factor, full length (263 aa), purified and lipidated (human) (UniProt P13726); assay: cell-based or functional assay

clot time in prothrombin time (PT) assay, human plasma, 10 nM lipidated rhTF, at antibody concentration of 500 nM [1]: 48 s | clot time in prothrombin time (PT) assay, human plasma, 10 nM lipidated rhTF, without antibody (0 nM) [1]: 25 s | clot time in prothrombin time (PT) assay, human plasma, 10 nM lipidated rhTF, at antibody concentration of 500 nM [2]: 42 s | clot time in prothrombin time (PT) assay, human plasma, 10 nM lipidated rhTF, without antibody (0 nM) [2]: 25 s
B1: Sunol-cH36 (antibody, from another filing, V domains shown)
VH: EIQLQQSGPELVKPGASVQVSCKTSGYSFTDYNVYWVRQSHGKSLEWIGYIDPYNGITIYDQNFKGKATLTVDKSSTTAFMHLNSLTSDDSAVYFCARDVTTALDFWGQGTTLTVSS
VL: DIQMTQSPASQSASLGESVTITCLASQTIDTWLAWYQQKPGKSPQLLIYAATNLADGVPSRFSGSGSGTKFSFKISSLQAEDFVNYYCQQVYSSPFTFGAGTKLELK
